From patent US20230049752A1 (University of California, published 2023)
Residue numbers refer to the chain shown, from its start.

T1: mouse Claudin-6 (CLDN6) (mouse, UniProt Q9Z262 1-219)
T1 construct: whole, on cells; GFP fusion on engineered HEK293T cells; also called Mouse CLDN6; murine CLDN6
T1 sequence (looked up): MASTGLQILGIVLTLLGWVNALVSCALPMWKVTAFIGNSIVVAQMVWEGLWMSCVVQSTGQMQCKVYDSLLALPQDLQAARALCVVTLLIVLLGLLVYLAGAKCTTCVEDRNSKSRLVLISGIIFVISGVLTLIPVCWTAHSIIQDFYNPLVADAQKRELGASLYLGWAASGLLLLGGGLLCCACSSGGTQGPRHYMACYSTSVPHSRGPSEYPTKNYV

B1: AB4-3 (antibody, V domains shown)
VH: QVQLVQSGAEVKKPGASVKVSCKASGYTFTSYTMHWVRQAPGQGLEWMGYINPSSTYTHYAQKFQGRVTMTADTSTSTVYMELSSLRSEDTAVYYCSRGELGGFAYWGQGTLVTVSS
VL: DVVMTQSPLSLPVTLGQPASISCRSSQSLVHSDGNTYLNWYQQRPGQSPRLLIYKVSNRFSGVPDRFSGSGSGTDFTLKISRVEAEDVGVYYCSQSTHVPYTFGQGTKLEIK
notes: humanized
B2: AB4-5 (antibody, V domains shown)
VH: B1 VH with V20M, V37I, L45Q, M48I, V68A, M70L, V79A
VL: B1 VL
notes: humanized
B3: AB11-chim (antibody, V domains shown)
VH: DVQLVESGGGLVQPRGSRKLSCAASGFTFSSFGMHWVRQAPEKGLEWVAYISSDSRTIYYADTVKGRFTISRDNPTNTLFLQMTSLRSEDTAMYYCARDYGRTYEAYWGQGTLVTVSA
VL: DIVLTQSPASLAVSLGQRATISCRASKSVSTSGYSYIHWYQQKPGQPPKLLIYLASNLESGVPARFSGSGSGTDFTLNIHPVEEEDAATYYCQHSRELPLTFGAGTKLELK
B4: AB9-4 (antibody, V domains shown)
VH: QVQLVQSGAEVKKPGASVKMSCKASGYRFTDYNMHWVRQAPGQGLEWIGYINPNNGGTNYAQKFQGRATLTVDTSTSTAYMELSSLRSEDTAVYYCARDYLYFFDCWGQGTLLTVSS
VL: DIQMTQSPSSLSASVGDRVTITCRASQTIGTWLAWYQQKPGKAPKLLIYAAASLADGVPSRFSGSGSGTDFTFTISSLQPEDFVTYYCQQLYSIPRTFGQGTKLEIK
notes: humanized
B5: AB3-3 (antibody, V domains shown)
VH: EVQLLESGGGLVQPGGSMRLSCAASGFTFSNYWMNWVRQAPGKGLEWVAQIRLKSDNYATHYADSVKGRFTISRDDSKNTVYLQMNSLRAEDTGVYYCNDGPPSGCWGQGTLLTVSS
VL: DIQMTQSPSSLSASVGDRVTITCRISENIYSYLAWYQQKPGKAPKLLVYNAKILVEGVPSRFSGSGSGTDFTLTISSLQPEDFGTYYCQHHYTVPWTFGQGTKLEIK
notes: humanized
B6: AB3-4 (antibody, V domains shown)
VH: B5 VH with C106Y
VL: B5 VL with V48I, G84A
notes: humanized
B7: AB3-2 (antibody, V domains shown)
VH: B5 VH
VL: B5 VL with V48I, G84A
notes: humanized
B8: AB3-5 (antibody, V domains shown)
VH: B5 VH with C106Y
VL: B5 VL
notes: humanized

Legend:
[1] = biological target: human Claudin-6 (CLDN6) (human) (UniProt P56747); experiment: FACS, 1.5 ug Ab, 293T clone expressing human CLDN6 (2nd Ab only 768.07)
[2] = biological target: human Claudin-6 (CLDN6) (human) (UniProt P56747); experiment: FACS, 0.3 ug Ab, ARK2 cells (2nd Ab only 1351.21)
[3] = biological target: human Claudin-6 (CLDN6) (human) (UniProt P56747); experiment: FACS, 0.3 ug Ab, 293T clone expressing human CLDN6 (2nd Ab only 768.07)
[4] = biological target: human Claudin-6 (CLDN6) (human) (UniProt P56747); experiment: FACS, 1.5 ug Ab, OVCA429 cells (2nd Ab only 885.77)
[5] = biological target: human Claudin-6 (CLDN6) (human) (UniProt P56747); experiment: FACS, 1.5 ug Ab, ARK2 cells (2nd Ab only 1351.21)
mouse Claudin-6 (CLDN6) = biological target: T1, mouse Claudin-6 (CLDN6); experiment: FACS, 293T clone expressing mouse CLDN6, dose not stated (2nd Ab only 1061.72)
Method: Two doses (1.5 μg or 0.3 μg) of the humanized antibodies were tested for binding to either human CLDN6 or murine CLDN6 which proteins were expressed by engineered 293T clones.

Binder	FACS fluorescence [1]	FACS fluorescence [2]	FACS fluorescence [3]	FACS fluorescence [4]	FACS fluorescence [5]	FACS fluorescence (mouse Claudin-6 (CLDN6))
B1	47800	1190	14300	1160	1520	671
B2	43400	967	16800	1350	1200	2000
B3	3490	1320	1670	2440	1260	5490
B4	34300	1120	15300	1110	1550	1710
B5	340000	1160	251000	88700	54900	23000
B6	55800	1320	11600	2960	1460	1520
B7	396000	14700	309000	85900	33600	31700
B8	48600	1280	13300	2950	2910	783
